Assay [1] addresses recombinant human FcγRIIIa (human) (UniProt P08637). The assay is described as follows: SPR; F158 allotype.
Assay [2] concerns the target recombinant human FcγRIIa (human) (UniProt P12318). The assay is described as follows: SPR; R131 allotype.
The target of assay [3] is recombinant human FcγRI (human) (UniProt P12314). Kind of assay: SPR. Background: Surface plasmon resonance follows binding to a sensor surface in real time, without labels.
The target of assay [4] is rituximab hIgG1 μtp pre-formed hexamer (human). The assay is described as follows: SEC; SE-UHPLC after Protein A purification, against molecular weight controls; ACQUITY BEH200, 200 mM phosphate pH 7.0, 1 µg injected. In general terms: SEC sorts molecules by how far they enter the pores of the column.
Assay [5] has the same target. Kind of assay: SEC-MALS; 50 μg on Superdex 200 increase 10/300, PBS pH 7.4, 0.5 ml/minute; absolute molecular weight.
For assay [6] the target is unchanged. The assay is described as follows: negative stain electron microscopy; antibody 10 μg/ml on grids, 2% uranyl acetate, x80,000.

Chain of UniProt P12318 (P12318 34-217): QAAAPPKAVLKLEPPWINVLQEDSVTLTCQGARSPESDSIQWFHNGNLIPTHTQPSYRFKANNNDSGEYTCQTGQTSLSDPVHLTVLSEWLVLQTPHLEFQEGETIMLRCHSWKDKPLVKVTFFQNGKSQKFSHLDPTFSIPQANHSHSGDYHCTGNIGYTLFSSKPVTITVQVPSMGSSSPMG
Chain of UniProt P08637 (P08637 17-208): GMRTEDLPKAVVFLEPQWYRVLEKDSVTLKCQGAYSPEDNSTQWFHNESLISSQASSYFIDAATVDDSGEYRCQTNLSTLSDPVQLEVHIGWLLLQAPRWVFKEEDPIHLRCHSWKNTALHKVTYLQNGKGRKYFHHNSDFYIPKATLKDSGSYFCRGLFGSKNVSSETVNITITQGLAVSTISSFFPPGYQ
Chain of UniProt P12314 (P12314 16-292): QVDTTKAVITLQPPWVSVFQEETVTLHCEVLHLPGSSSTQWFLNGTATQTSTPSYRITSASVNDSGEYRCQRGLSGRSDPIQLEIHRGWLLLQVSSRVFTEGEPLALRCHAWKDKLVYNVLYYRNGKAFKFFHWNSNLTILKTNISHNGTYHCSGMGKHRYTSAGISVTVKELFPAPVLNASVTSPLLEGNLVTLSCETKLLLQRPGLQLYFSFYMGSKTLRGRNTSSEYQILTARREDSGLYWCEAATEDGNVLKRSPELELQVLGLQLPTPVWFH

The Kd is a measure of binding affinity in units of concentration. As to rituximab hIgG1 wild-type, the equilibrium dissociation constant (Kd) in assay [1] was determined as 719 nM; in assay [2], 935 nM; in assay [3], 4.36 nM.
The like results for rituximab hIgG1 μtp pre-formed hexamer were, in that order, 410 nM, 964 nM and 7.53 nM.
By stoichiometry N is commonly meant a count of units in the complex or per binding partner. Regarding “rituximab hIgG1 μtp pre-formed hexamer (antibody)”, the stoichiometry N in assay [4], in assay [5] and in assay [6] was 6 throughout.

The values are drawn from publication PMC8413284.
